B1: Zinc finger protein ZIC 2, residues 250 to 295; numbered along this chain, O95409 (parent)
chain: QCIKQELICKWIDPEQLSNPKKSCNKTFSTMHELVTHVSVEHVGGP
B2: Homeobox protein SIX3, residues 212 to 262; numbered along this chain, O95343 (parent)
chain: CFKERTRSLLREWYLQDPYPNPSKKRELAQATGLTPTQVGNWFKNRRQRDR

Variants of: B1
Assay: abundance fitness (aPCA) (normalised: wild type 0, dead -1); higher = more abundant; growth selection in yeast, the domain comes from the species named
Conditions: Homo sapiens

Abundance fitness of substitutions, site by site:
K4: T -0.304 | P -0.236 | L -0.184 | C -0.411 | N -0.085 | D 0.261 | Y -0.671 | I -0.734 | W -1.05 | S -0.204 | F -0.645 | Q -0.458 | A -0.187 | V -0.513 | G -0.309 | E 0.088 | H -0.816 | M -0.105
E6: H -0.687 | A -0.351 | Q -0.207 | K -0.687 | Y -0.653 | G -0.198 | V -0.778 | S 0.009 | L -0.974 | R -0.312 | I -1.62 | N -0.264 | F -1.04 | W -0.767 | T -0.748 | C -0.632
I8: V 0.086 | C -0.177 | L -0.056 | R 0.241 | Y -0.245 | Q 0.171 | W -0.31 | S 0.02 | H 0.033 | M 0.031 | T 0.041 | N 0.586 | G 0.036 | K 0.4 | D 0.384
L7: N 0.22 | R 0.044 | C -0.196 | E 0.17 | T 0.001 | Q 0.401 | H 0.306 | G -0.425 | I -0.103 | F -0.322 | D -0.375 | A 0.097 | M 0.191 | V 0.08 | P 0.194 | Y -0.152 | W -0.223 | K 0.309
I3: V -0.248 | W -0.376 | Y -0.151 | A -0.568 | P -0.586 | H -0.518 | E -0.352 | M 0.174 | N -0.602 | F -0.57 | K -0.652 | L -0.254 | Q 0.224 | T 0.052 | R -0.61 | D -0.541 | S -0.526 | C -0.673
Q1: A 0.373 | G -0.22 | C -0.274 | P -0.915 | W -0.321 | V -0.349 | H -0.101 | N 0.294 | K -0.455 | Y -0.705 | T 0.146 | M -0.131 | S 0.503 | L -0.356 | D 0.21 | E -0.077
Q5: K 0.05 | H -0.382 | E 0.242 | I -0.906 | A -0.071 | T -0.22 | D 0.366 | V -0.779 | R -0.014 | M -0.688 | Y -0.641 | S -0.24 | N 0.018 | P 0.037 | W -0.777 | G -0.283 | C -0.733 | F -0.612 | L -0.661
C2: Q 0.127 | H -0.126 | T 0.126 | L 0.73 | I 0.605 | S 0.047 | K 0.194 | P -0.136 | E 0.123 | V 0.419 | R -0.129 | F -0.182 | D 0.108 | M 0.612 | G 0.259 | N -0.176

Variants of: B2
Assay: as above
Conditions: Homo sapiens

Abundance fitness: each site, then its substitutions
R49: S -0.279 | Y -0.074 | Q 0.018 | T -0.18 | P -0.844 | W -0.462 | V -0.153
R51: D 0.246 | N -0.267 | A -0.031 | F -0.18 | G -0.375 | E -0.155 | V -0.441 | W -0.309
D50: M -0.799 | A -0.579 | C -0.678 | H -0.515 | I -0.737 | E 0.189 | R -1.08 | T -0.582 | L -0.64 | V -0.699 | Q -0.276 | Y -0.6 | G -0.609 | N -0.747 | S -0.491 | W -1.17
